# From patent US20150266962A1 (Pfizer, published 2015)
# Substitutions are numbered along the chain they refer to. Names may count otherwise.
# T1: recombinant human IL-13 receptor alpha 2 (hIL-13-Rα2) (human, UniProt Q14627 27-343)
# T1 construct: Recombinant soluble antigen coated on ELISA plates or used in Biacore; also called rec hIL-13Rα2; rhIL-13Rα2
# T1 sequence (looked up): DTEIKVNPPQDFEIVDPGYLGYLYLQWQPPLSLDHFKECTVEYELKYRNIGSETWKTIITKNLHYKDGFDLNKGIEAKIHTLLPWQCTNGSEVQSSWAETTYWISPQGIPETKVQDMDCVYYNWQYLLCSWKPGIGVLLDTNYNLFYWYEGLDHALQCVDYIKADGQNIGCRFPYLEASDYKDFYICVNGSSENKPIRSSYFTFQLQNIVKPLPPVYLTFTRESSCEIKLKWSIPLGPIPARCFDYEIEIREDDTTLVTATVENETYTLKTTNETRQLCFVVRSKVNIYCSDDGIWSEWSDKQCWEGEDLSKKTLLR
# T2: cynomolgus monkey IL-13-Rα2 ECD/TM domain with C-terminal Flag tag, on transfected HEK293 cells (cynomolgus monkey, UniProt Q14627 27-363 (human entry))
# T2 construct: also called cyno-IL-13-Rα2; cyno IL-13Rα2; not shown: Flag tag at the C-terminal end
# T2 chain: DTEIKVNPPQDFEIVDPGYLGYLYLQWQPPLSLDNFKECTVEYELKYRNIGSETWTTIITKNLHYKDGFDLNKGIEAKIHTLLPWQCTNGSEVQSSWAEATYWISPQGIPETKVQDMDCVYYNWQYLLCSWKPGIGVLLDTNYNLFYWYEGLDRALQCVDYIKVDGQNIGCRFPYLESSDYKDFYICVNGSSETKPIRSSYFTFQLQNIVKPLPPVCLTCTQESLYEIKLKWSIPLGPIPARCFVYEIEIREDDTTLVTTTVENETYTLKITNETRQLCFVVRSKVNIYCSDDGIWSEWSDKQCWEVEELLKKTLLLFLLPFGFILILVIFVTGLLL
# B1: humanized antibody hu08 v1.1 HC/v1.1 LC (antibody, IgG1, V domains shown)
# VH: EVQLVESGGGLVQPGGSLRLSCAASGFTFSRNGMSWVRQTPDKRLEWVATVSSGGSYIYYADSVKGRFTISRDNAKNSLYLQMSSLRAEDTAVYYCARQGTTALATRFFDVWGQGTLVTVSS
# VL: DIQMTQSPSSLSASVGDRVTITCKASQDVGTAVAWYQQIPGKAPKLLIYSASYRSTGVPDRFSGSGSGTDFSFIISSLQPEDFATYYCQHHYSAPWTFGGGTKVEIK
# notes: hIgG1 constant region and hIgKappa constant region; also called hu08 v1.1/1.1; hu08v1.1/1.1
# B2: humanized antibody hu08 v1.1 HC/v1.0 LC (antibody, IgG1, V domains shown)
# VH: B1 VH
# VL: B1 VL with I39K, D60S, S72T, F73L, I74T
# notes: hIgG1 constant region and hIgKappa constant region; also called hu08 v1.1/1.0
# B3: humanized antibody hu08 v1.0 HC/v1.1 LC (antibody, IgG1, V domains shown)
# VH: B1 VH with T40A, D42G, R44G, S84N
# VL: B1 VL
# notes: hIgG1 constant region and hIgKappa constant region; also called hu08 v1.0/1.1
# B4: naked IL-13Rα2 (positive control competitor) (receptor, not shown: a dimerising Fc or GST; large carriers; small tags and cut ends)
# chain: T1 sequence (looked up)
# B5: hu08 with light chain mutation D185A (hu08MAC, unconjugated) (antibody)
# heavy: not shown
# light: DIQMTQSPSSLSASVGDRVTITCKASQDVGTAVAWYQQKPGKAPKLLIYSASYRSTGVPSRFSGSGSGTDFTLTISSLQPEDFATYYCQHHYSAPWTFGGGTKVEIKRTVAAPSVFIFPPSDEQLKSGTASVVCLLNNFYPREAKVQWKVDNALQSGNSQESVTEQDSKDSTYSLSSTLTLSKAAYEKHKVYACEVTHQGLSSPVTKSFNRGEC
# notes: also called hu08/kD185A
# B6: hu08v1.0/1.0-L443C/K183C (antibody)
# heavy: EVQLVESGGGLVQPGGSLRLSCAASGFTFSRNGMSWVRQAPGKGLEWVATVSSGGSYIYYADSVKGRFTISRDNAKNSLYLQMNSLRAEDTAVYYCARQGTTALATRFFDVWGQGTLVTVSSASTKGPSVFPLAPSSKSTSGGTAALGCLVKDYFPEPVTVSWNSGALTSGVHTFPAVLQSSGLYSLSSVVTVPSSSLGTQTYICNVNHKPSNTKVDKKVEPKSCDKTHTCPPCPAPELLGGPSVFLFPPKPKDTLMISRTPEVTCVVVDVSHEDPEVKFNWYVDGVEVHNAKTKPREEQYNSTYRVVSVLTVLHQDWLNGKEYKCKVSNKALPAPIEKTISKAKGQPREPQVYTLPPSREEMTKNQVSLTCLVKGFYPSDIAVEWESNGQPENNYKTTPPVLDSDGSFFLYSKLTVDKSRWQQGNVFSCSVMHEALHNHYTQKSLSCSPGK
# light: B5 light with K183C, A185D
# notes: also called hu08/L443C/kK183C; L443C/kK183C
# B7: hu08v1.0/1.0-L443C (antibody)
# heavy: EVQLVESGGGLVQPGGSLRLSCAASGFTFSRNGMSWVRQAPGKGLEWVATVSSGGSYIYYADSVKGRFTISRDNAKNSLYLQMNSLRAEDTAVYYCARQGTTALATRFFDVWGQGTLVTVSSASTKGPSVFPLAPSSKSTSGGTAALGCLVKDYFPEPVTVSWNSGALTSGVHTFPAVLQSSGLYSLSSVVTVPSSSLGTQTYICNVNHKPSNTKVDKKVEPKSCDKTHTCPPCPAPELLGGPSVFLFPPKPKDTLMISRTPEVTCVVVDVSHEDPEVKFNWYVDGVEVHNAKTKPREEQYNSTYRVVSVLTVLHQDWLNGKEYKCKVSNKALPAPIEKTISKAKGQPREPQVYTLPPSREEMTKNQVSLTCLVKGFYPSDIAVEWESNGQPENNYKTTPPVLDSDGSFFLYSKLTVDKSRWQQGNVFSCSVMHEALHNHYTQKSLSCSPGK
# light: B5 light with A185D
# notes: also called hu08/L443C
# B8: hu08v1.0/1.0-Q347C (antibody)
# heavy: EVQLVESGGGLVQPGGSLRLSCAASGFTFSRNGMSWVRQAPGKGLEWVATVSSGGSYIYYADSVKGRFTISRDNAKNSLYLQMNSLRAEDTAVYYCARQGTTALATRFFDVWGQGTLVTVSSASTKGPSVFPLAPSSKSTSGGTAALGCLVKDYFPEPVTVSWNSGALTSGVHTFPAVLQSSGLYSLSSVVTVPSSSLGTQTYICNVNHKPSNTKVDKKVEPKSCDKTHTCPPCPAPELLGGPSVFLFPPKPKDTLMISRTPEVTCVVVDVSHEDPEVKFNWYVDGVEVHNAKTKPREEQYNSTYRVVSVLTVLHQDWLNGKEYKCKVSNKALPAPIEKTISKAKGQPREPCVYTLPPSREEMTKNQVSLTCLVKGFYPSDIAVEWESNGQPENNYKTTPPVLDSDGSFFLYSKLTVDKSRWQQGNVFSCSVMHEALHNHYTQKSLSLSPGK
# light: B5 light with A185D
# notes: also called hu08/Q347C
# B9: hu08v1.0/1.0-Q347C/K183C (antibody, human IgG1, kappa)
# heavy: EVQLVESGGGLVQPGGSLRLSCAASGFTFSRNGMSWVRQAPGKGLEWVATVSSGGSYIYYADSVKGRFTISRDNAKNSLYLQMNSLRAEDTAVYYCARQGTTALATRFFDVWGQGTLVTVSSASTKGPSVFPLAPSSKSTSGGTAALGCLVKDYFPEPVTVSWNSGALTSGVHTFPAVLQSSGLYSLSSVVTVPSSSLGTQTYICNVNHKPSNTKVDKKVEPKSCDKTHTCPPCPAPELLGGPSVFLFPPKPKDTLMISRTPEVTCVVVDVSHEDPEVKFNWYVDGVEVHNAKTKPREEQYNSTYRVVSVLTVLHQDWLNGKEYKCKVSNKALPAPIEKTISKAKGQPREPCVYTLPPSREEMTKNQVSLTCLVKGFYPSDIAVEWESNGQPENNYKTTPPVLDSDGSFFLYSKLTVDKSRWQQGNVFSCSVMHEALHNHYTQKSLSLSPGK
# light: B5 light with K183C, A185D
# notes: also called hu08/Q347C/kK183C; Q347C/kK183C
# B10: hu08v1.0/1.0-Q347C/A111C (antibody)
# heavy: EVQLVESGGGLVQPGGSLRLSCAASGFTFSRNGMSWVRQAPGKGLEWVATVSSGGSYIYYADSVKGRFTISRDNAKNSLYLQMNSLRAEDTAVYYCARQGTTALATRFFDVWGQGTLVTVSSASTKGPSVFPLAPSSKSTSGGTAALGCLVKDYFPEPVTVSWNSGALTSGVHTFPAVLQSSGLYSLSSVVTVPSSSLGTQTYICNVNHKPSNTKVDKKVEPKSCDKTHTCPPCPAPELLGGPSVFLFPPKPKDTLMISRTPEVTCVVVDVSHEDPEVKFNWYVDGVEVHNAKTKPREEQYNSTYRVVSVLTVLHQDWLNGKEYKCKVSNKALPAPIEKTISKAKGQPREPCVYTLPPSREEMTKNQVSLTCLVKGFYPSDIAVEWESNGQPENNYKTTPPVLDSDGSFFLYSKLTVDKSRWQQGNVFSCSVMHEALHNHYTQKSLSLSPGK
# light: B5 light with A112C, A185D
# notes: also called hu08/Q347C/kA111C; Q347C/kA111C
# B11: hu08v1.0/1.0-A111C (antibody)
# heavy: not shown
# light: B5 light with A112C, A185D
# notes: also called hu08/kA111C; kA111C
# B12: hu08v1.0/1.0-L443C/A111C (antibody)
# heavy: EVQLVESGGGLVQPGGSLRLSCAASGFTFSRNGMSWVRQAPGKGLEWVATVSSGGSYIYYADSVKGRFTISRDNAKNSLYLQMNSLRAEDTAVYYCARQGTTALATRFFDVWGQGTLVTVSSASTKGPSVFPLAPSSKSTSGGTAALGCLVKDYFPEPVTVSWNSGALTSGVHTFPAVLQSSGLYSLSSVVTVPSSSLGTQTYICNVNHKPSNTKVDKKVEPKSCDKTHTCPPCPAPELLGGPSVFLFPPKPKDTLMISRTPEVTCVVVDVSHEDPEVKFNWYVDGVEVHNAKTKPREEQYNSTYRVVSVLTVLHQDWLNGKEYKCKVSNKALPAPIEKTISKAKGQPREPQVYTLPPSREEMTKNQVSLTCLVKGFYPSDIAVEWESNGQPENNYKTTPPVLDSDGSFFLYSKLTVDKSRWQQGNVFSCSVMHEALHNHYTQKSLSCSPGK
# light: B5 light with A112C, A185D
# notes: also called hu08/L443C/kA111C; L443C/kA111C
# B13: hu08v1.0/1.0-K188C (antibody, human IgG1, kappa)
# heavy: not shown
# light: B5 light with A185D, K188C
# notes: also called hu08/kK188C; kK188C
# B14: hu08v1.0/1.0-K183C (antibody, human IgG1, kappa)
# heavy: not shown
# light: B5 light with K183C, A185D
# notes: also called hu08/kK183C; kK183C
# B15: hu08v1.0/1.0-V422C/L443C (antibody)
# heavy: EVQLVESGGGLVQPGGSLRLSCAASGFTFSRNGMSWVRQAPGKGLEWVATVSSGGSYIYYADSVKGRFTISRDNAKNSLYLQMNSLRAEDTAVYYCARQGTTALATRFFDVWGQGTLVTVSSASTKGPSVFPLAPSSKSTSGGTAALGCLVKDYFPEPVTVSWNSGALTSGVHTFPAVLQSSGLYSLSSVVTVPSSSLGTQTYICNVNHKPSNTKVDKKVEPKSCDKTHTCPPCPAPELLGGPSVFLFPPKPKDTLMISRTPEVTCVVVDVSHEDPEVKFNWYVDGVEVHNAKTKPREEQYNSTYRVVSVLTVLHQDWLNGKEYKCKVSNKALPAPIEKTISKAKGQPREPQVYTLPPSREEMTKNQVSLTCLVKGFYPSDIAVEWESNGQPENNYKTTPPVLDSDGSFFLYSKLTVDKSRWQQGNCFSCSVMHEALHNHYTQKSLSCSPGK
# light: B5 light with A185D
# notes: also called hu08/L443C/V422C; L443C/V422C
# B16: hu08v1.0/1.0-K392C/L443C (antibody)
# heavy: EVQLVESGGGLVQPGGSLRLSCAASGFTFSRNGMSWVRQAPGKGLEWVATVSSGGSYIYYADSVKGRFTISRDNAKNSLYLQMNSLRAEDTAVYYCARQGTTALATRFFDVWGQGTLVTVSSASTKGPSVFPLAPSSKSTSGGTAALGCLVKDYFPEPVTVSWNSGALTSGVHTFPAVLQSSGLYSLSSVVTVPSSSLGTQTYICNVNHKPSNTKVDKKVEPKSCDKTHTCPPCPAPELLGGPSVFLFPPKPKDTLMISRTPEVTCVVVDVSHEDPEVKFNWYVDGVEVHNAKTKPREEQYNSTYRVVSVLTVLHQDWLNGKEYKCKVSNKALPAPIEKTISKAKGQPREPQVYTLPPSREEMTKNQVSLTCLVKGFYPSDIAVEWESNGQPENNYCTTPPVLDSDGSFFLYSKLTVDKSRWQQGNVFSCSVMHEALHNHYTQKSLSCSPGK
# light: B5 light with A185D
# notes: also called hu08/L443C/K392C; L443C/K392C
# B17: hu07 heavy chain v1.5 paired with chimeric light chain (antibody, V domains shown)
# VH: EVQLVESGGGLVQPGGSLRLSCAASGFSLTKYGVHWVRQAPGKGLEWVGVKWAGGSTDYNSALMSRFTISKDNAKNSLYLQMNSLRAEDTAVYYCARDHRDAMDYWGQGTLVTVSS
# VL: QVVLTQSPAIMSASPGERVTMTCTASLSVSSTYLHWYHQKPGSSPKLWIYSTSNLASGVPARFSGSGSGTSYSLTISSMEAEDAATYYCHQYHRSPLTFGSGTKLELK
# notes: hIgG1 constant region; the chimeric light chain is the mu07 VL with human kappa constant region; also called hu07v1.5/kc; hu07 v1.5 paired with chimeric light chain Kc
# B18: hu07 heavy chain v1.5 / light chain v1.1 (antibody, IgG1, V domains shown)
# VH: B17 VH
# VL: DIQMTQSPSSLSASVGDRVTITCTASLSVSSTYLHWYQQKPGSSPKLLIYSTSNLASGVPSRFSGSGSGTSFTLTISSLQPEDFATYYCHQYHRSPLTFGGGTKVEIK
# notes: hIgG1 constant region and hIg Kappa constant region; also called hu07v1.5/v1.1
# B19: hu07 heavy chain v1.5 / light chain v1.0 (antibody, IgG1, V domains shown)
# VH: B17 VH
# VL: B18 VL with S43K, S44A, S71D
# notes: hIgG1 constant region and hIg Kappa constant region; also called hu07v1.5/v1.0
# B20: humanized antibody hu07 heavy chain v1.5 / light chain v1.7 (antibody, IgG1, V domains shown)
# VH: B17 VH
# VL: B18 VL with L48W, F72Y
# notes: hIgG1/kappa; also called hu07Hv1.5/kv1.7
# Assays:
# [1] = molecular target: T1, recombinant human IL-13 receptor alpha …; assay: competition ELISA on coated recombinant hIL-13-Rα2, competitor biotin-ch08
# Method: A competition ELISA was performed to assess whether hu08 1.0 and hu08 v1.1 compete with ch08 for IL-13-Rα2 binding. Recombinant hIL-13-Rα2 was coated onto 96-well plates at 50 ul of […] in PBS overnight at 4° C. Plates were then blocked and washed following standard ELISA protocol. A 3-fold serially diluted ch08, hu08 1.0 and hu08 v1.1, and negative control ch07 (2× final concentration) were mixed with biotinylated ch08 (2×EC₅₀). 50 μl of the antibody and biotin-ch08 mixture were added to the plate and incubated for 1 hour at room temperature. The amount of biotin-ch08 bound was detected by HRP conjugated streptavidin.
# [2] = molecular target: T2, cynomolgus monkey IL-13-Rα2 ECD/TM …; assay: FACS on HEK293 cells transfected with cyno-IL-13-Rα2 (given as ED50)
# Method: The ECD/TM domain of cyno IL-13-Rα2 fused with Flag tag at the C-terminal end was cloned into the pSMED2 expression vector. HEK293 suspension cells were transiently transfected with cyno-IL-13-Rα2 containing plasmid and pSMED2 vector (as a mock transfection). The cells were harvested 72 hours later and subjected to FACS analysis. 4 antibodies including ch07, ch08, hu08v1.0/1.0 and hu08v1.1/1.1 were tested. The binding on the cell surface cyno-IL-13-Rα2 was detected with R-Phycoerythrin-labeled goat anti-human or mouse IgG.
# [3] = molecular target: T1, recombinant human IL-13 receptor alpha …; assay: direct ELISA on coated recombinant hIL-13-Rα2
# Method: Humanized hu08 binding to recombinant hIL-13-Rα2 was evaluated by a standard direct ELISA. Recombinant hIL-13-Rα2 was coated onto a 96-well plate. Serially diluted chimeric antibodies or humanized antibodies in combinations of heavy and light chains of versions 1.0 and 1.1 e.g. hu08 v1.0 HC/1.0 LC, hu08 v1.0 HC/v1.1 LC, hu08 v1.1 HC/v1.0 LC, and hu08 v1.1 HC/v1.1 LC, were added to the plate and incubated at room temperature for 1-2 hours. The binding was detected by HRP conjugated goat anti-human Ig Kappa.
# [4] = molecular target: T3, IL-13 (UniProt P35225 35-146, limits assumed); assay: competition ELISA: IL-13 captured on an anti-Flag coated plate, constant amounts of IL-13 and biotinylated IL-13Rα2-Fc (the competitor), detected with streptavidin-HRP
# T3 construct: also called IL-13 cytokine
# Method: In order to assess whether ch07 and ch08 can neutralize IL-13 function, a competition ELISA was performed. An anti-Flag Ab was coated onto 96-well plates and incubated overnight at 4° C. Plates were then blocked and washed following standard ELISA protocol. […] 100 ul of the complex was added to the ELISA plate and incubated for 1 hour at room temperature. The amount of biotin-IL-13-Rα2 bound was detected by HRP conjugated streptavidin at 1:5000 for 1 hour.
# [5] = molecular target: T1, recombinant human IL-13 receptor alpha …; assay: standard ELISA on hIL-13-Rα2 (given as ED50)
# [6] = molecular target: T1, recombinant human IL-13 receptor alpha …; assay: competition ELISA on hIL-13-Rα2, competitor biotinylated ch08
# Method: The binding properties of the cysteine mutants to hIL-13-Rα2 were evaluated by a standard ELISA and a competition ELISA. […] This conclusion was confirmed by a competition ELISA with biotinylated ch08.
# [7] = molecular target: T1, recombinant human IL-13 receptor alpha …; assay: direct ELISA on rhIL-13Rα2 (given as ED50)
# [8] = molecular target: T1, recombinant human IL-13 receptor alpha …; assay: competition ELISA on plate (recombinant IL-13-Rα2), competitor biotinylated ch07
# [9] = molecular target: T1, recombinant human IL-13 receptor alpha …; assay: direct ELISA on rhIL-13Rα2, purified protein (given as ED50)
# [10] = molecular target: T1, recombinant human IL-13 receptor alpha …; assay: competition ELISA on plate, competitor biotinylated ch07, purified protein
# T3 sequence (P35225 35-146 limits assumed): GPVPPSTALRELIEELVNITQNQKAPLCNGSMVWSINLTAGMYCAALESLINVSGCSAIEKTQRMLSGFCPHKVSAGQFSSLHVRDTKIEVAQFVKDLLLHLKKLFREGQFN
binder,measurement,setting,value
B1,IC50,[1],3.16 nM
same,EC50,[2],2.14 nM
same,EC50,[3],0.198 nM
B2,IC50,[1],2.56 nM
same,EC50,[3],0.163 nM
B3,IC50,[1],2.14 nM
same,EC50,[3],0.143 nM
B4,IC50 (read off the curve),[4],~0.1 nM
B5,EC50,[5],0.108 nM
same,IC50,[6],2.36 nM
B6,EC50,[5],0.11 nM
same,IC50,[6],2.45 nM
B7,EC50,[5],0.1 nM
same,IC50,[6],2.25 nM
B8,EC50,[5],0.1 nM
same,IC50,[6],2.07 nM
B9,EC50,[5],0.13 nM
same,IC50,[6],2.41 nM
B10,EC50,[5],0.1 nM
same,IC50,[6],2.44 nM
B11,EC50,[5],0.22 nM
same,IC50,[6],4.07 nM
B12,EC50,[5],0.12 nM
same,IC50,[6],2.32 nM
B13,EC50,[5],0.18 nM
same,IC50,[6],2.73 nM
B14,EC50,[5],0.11 nM
same,IC50,[6],2.47 nM
B15,EC50,[5],0.09 nM
same,IC50,[6],2.17 nM
B16,EC50,[5],0.09 nM
same,IC50,[6],2.1 nM
B17,EC50,[7],0.183 nM
same,IC50,[8],3.03 nM
B18,EC50,[7],1.21 nM
same,IC50,[8],46.6 nM
B19,EC50,[7],0.754 nM
same,IC50,[8],62 nM
B20,EC50,[9],0.39 nM
same,IC50,[10],7.7 nM
